Test results published in PMC10758103.

Biological target: T1, p32 stably overexpressed from lentiviral pCDH-p32, Q07021
T1 chain: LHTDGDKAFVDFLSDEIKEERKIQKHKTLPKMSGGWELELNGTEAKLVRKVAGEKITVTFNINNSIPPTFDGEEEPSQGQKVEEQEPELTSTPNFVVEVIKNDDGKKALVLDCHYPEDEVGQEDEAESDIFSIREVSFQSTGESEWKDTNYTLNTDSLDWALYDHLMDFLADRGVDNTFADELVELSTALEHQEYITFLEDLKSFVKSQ
Experiment: cross-linking; 786-O-pCDH and 786-O-p32 cells treated with gradients of elesclomol and CuSO4; 0.1 mM disuccinimidyl suberate (DSS) on cells, 30 minutes at room temperature, quenched with 50 mM Tris; 8% SDS-PAGE and western blot
Settings: remark: other sources report otherwise

B1: p32 stably overexpressed from lentiviral pCDH-p32, Q07021 74-282 (natural protein)
chain: LHTDGDKAFVDFLSDEIKEERKIQKHKTLPKMSGGWELELNGTEAKLVRKVAGEKITVTFNINNSIPPTFDGEEEPSQGQKVEEQEPELTSTPNFVVEVIKNDDGKKALVLDCHYPEDEVGQEDEAESDIFSIREVSFQSTGESEWKDTNYTLNTDSLDWALYDHLMDFLADRGVDNTFADELVELSTALEHQEYITFLEDLKSFVKSQ
stoichiometry N: 2
